Values quoted from earlier work, collected in article PMC3781210.
Read-outs that look alike come from different tables or passages of the source.

Key:
Beclin 1 (Homo sapiens) [1] = target: Beclin 1 (Homo sapiens) (UniProt Q14457)
Beclin 1 (Homo sapiens) [2] = target: Beclin 1 (Homo sapiens) (UniProt Q14457); remark: listed apart in the source
Beclin 1 (Homo sapiens) [3] = target: Beclin 1 (Homo sapiens) (UniProt Q14457); remark: listed apart in the source

Chain of UniProt Q14457 (Q14457 150-450): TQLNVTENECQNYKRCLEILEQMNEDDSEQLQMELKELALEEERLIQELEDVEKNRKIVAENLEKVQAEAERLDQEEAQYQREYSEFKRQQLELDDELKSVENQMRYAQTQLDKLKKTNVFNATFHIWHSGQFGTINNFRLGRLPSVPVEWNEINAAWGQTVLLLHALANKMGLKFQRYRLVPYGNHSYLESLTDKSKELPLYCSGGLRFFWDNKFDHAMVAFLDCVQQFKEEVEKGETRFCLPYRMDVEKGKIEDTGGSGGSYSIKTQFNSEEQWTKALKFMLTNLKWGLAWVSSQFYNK

vBcl-2 (from UniProt P89884)
Kd (Beclin 1 (Homo sapiens) [1]): 40 nM

Bcl-2 (from UniProt P10415)
Kd (Beclin 1 (Homo sapiens) [2]): 1700 nM

Bcl-XL (from UniProt Q07817)
Kd (Beclin 1 (Homo sapiens) [3]): 1700 nM
